Five molecules from patent US20190375846A1 (ULTRAHUMAN ONE, published 2019) can be followed below.

For one assay, the target named is T1, hDR3-Fc (human, UniProt Q93038).
T1 construct: recombinant Fc fusion; Member of the panel m8
T1 sequence (fusion chain, looked up): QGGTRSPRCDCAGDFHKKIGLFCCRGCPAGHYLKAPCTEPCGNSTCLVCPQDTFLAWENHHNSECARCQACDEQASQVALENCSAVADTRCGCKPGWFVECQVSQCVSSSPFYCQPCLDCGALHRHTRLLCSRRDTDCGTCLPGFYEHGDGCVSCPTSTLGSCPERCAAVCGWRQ
The assay can be described thus: direct ELISA on coated protein, IgG at 10 µg/ml, OD 450 nm. Here is the method: (§1) Off-target homologue binding risk for mVH/mVL (FIG. 8A), VH3/VL2 (FIG. 8B) and lead engineered IgG clones G-G10 (FIG. 8C), I-C2 (FIG. 8D) and D-A6 (FIG. 8E) was examined by direct ELISA on GITR-Fc orthologs and a panel of 13 human TNFRSF and immunoglobulin superfamily proteins (as labelled on each X-axis). Binding to human, cyno and murine GITR-Fcs (h/c/mGITR-Fc) was performed at an IgG concentration of 1 μg/ml. Binding to all other proteins was performed at an IgG concentration of 10 μg/ml.
(§2) Anti-GITR antibodies were tested for polyreactivity by ELISA. Purified, recombinant, target and non-target antigens were coated in 96-well Nunc maxisorp plates at 100 ng per well in carbonate buffer, at 4° C. overnight. Plates were then washed 3× with PBS, blocked with 1% BSA in PBS, then washed 3× with PBS-Tween20. A dilution series of primary antibodies was then applied, plates were washed 3× with PBS-Tween20 followed by application of goat anti-human kappa chain-HRP 1:4,000 secondary antibody. Wells were then washed 3× with PBS-Tween20 and 2× with PBS, 100 μl TMB peroxidase substrate was added per well, the was reaction stopped by adding 100 μl 2M H₂SO₄ and absorbances were read at 450 nm. Anti-GITR antibodies were also tested for binding specificity by flow cytometry. HuT78 cells were activated by incubation with anti-CD3/anti-CD28 beads for 3 days. Naïve cells were incubated in media alone. At the end of the incubation the cells were harvested and the beads removed from the activated cells using a magnet. Cells were incubated with viability dye and then stained with anti-GITR antibodies at 4° C. […] Binding of VH1/VI1 and D-A6 IgG1 proteins were detected by subsequent incubation with a PE labelled goat anti-human IgG. Cells were fixed with 4% PFA before being stored in PBS at 4° C. overnight. Cells were analysed the next day using a BD Fortessa flow cytometer running Diva software. Analysis was performed using FlowJo software.

A further assay deals with T2, h4-1BB-Fc.
T2 construct: Member of the panel m8; not shown: Fc part and any linker
Described as above. How it is done: as §1, §2

The target in the next assay is T3, hBAFFR-Fc (human, UniProt Q96RJ3).
T3 construct: recombinant Fc fusion; Member of the panel m8
The description is as above. How it is done: as §1, §2

The target of a further assay is T4, hVCAM-1 (human, UniProt P19320).
T4 construct: purified recombinant protein; Member of the panel m8; the axis also carries a separate label hVCAM-Fc (f6)
T4 sequence (looked up): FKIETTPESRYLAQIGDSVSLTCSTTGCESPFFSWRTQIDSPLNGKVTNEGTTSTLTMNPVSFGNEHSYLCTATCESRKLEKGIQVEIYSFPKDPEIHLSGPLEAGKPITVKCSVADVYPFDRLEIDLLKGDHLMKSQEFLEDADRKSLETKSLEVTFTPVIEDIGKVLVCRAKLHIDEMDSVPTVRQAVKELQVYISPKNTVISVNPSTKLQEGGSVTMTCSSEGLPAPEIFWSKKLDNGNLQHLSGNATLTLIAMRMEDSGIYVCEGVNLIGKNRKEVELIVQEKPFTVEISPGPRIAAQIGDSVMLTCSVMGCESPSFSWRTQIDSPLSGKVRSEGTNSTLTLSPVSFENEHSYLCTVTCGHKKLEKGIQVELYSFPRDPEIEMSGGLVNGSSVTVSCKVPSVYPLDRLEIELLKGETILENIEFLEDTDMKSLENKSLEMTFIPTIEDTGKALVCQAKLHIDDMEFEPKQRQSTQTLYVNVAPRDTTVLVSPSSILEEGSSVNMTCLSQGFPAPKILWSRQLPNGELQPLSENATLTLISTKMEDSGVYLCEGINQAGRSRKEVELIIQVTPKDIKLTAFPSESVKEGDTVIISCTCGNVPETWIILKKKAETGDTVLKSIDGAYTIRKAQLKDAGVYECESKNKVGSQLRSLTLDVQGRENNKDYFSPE
The description is as above. How it is done: as §1, §2

Another assay addresses T5, hOX40-Fc.
T5 construct: Member of the panel m8; not shown: Fc part and any linker
T5 chain: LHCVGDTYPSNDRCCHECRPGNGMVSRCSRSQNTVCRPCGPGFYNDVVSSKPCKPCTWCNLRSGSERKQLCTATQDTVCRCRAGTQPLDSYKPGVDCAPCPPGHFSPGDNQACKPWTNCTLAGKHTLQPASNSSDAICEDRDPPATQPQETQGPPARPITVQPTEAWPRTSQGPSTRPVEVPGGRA
The description is as above. Here is the method: as §1, §2

Another assay addresses T6, hEpCAM-Fc (human, UniProt P16422).
T6 construct: recombinant Fc fusion; Member of the panel m8
T6 sequence (fusion chain, looked up): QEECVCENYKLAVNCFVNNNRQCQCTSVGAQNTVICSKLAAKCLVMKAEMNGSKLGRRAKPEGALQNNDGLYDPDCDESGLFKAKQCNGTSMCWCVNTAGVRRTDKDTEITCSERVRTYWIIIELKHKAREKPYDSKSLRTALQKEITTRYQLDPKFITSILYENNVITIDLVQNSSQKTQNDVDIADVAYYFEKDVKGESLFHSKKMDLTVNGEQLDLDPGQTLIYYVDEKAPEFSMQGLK
The description is as above. Here is the method: as §1, §2

Assay [1] concerns the target T7, human GITR at the cell surface (human, UniProt Q9Y5U5 26-241).
T7 construct: whole, on cells; The cell type is named in the assay field of each row; also called human GITR+ cells; CHO-K1 human GITR+ cells
T7 sequence (looked up): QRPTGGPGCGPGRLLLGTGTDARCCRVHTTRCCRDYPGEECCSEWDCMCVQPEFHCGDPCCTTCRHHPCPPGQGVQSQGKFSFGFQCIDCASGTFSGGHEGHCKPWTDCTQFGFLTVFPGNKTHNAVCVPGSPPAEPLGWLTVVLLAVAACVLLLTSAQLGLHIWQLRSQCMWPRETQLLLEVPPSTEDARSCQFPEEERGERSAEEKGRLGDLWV
As to the kind of experiment: flow cytometry, human GITR-transfected murine blastoma cells, 10,000-13.7 ng/ml. How it is done: Concentration-dependent binding to GITR at the cell surface was analysed using flow cytometry.

T3 sequence (Q96RJ3 7-71 limits assumed): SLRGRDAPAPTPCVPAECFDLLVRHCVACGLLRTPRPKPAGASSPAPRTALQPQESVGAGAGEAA
T2 sequence (chain, as listed by the source limits assumed): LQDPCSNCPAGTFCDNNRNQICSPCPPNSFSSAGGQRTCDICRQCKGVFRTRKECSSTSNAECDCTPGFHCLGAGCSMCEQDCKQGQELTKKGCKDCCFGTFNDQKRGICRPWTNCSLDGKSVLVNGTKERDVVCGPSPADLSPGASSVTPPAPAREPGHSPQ

B1: chimeric anti-GITR IgG1 mVH/mVL (6C8 murine v-domains) (antibody, V domains shown)
VH: QVTLKESGPGILKPSQTLSLTCSFSGFSLSTSGMGVGWIRQPSGKGLEWLAHIWWDDDKYYNPSLKSQLTISKDTSRNQVFLKITSVDTADAATYYCARTRRYFPFAYWGQGTLVTVSS
VL: DIVMTQSQKFMSTSVGDRVSVTCKASQNVGTNVAWYQQKPGQSPKALIYSASYRYSGVPDRFTGSGSGTDFTLTINNVHSEDLAEYFCQQYNTDPLTFGAGTKLEIK
notes: Full-length human IgG1, kappa; also called GITR-mVH/mVL; chimeric IgG
Consider B1, for which the binding result with hDR3-Fc, in the assay with h4-1BB-Fc, in the assay with hBAFFR-Fc, in the assay with hVCAM-1, in the assay with hOX40-Fc and with hEpCAM-Fc was “no binding (tested: 10 µg/ml)” each time. Moreover, in assay [1], the “concentration at maximum MFI” value was around 1110 ng/mL.

B2: D-A6 IgG1 (antibody, V domains shown)
VH: EVQLVESGGGLVQPGGSLRLSCAASGFSLSTSGYGVGWVRQAPGKGLEWLAHIWWDDDKYYVDSVKGRFTISRDNAKNSLYLQMNSLRAEDTAVYYCARTRQYFPFAYWGQGTLVTVSS
VL: EIVLTQSPATLSLSPGERATLSCRASQSVGSNLAWYQQKPGQAPRLLIYSASYRYTGIPARFSGSGSGTDFTLTISSLEPEDFAVYYCQQYSTDPLTFGGGTKVEIK
notes: Human IgG1
As to B2, the binding result in the assay with hDR3-Fc, in the assay with h4-1BB-Fc, in the assay with hBAFFR-Fc, in the assay with hVCAM-1, with hOX40-Fc and with hEpCAM-Fc was “no binding (tested: 10 µg/ml)” in each case. For the same molecule, the “concentration at maximum MFI” value in assay [1] was around 1110 ng/mL.

B3: G-G10 IgG1 (antibody, V domains shown)
VH: EVQLVESGGGLVQPGGSLRLSCAASGFSLSTFGYGVGWVRQAPGKGLEWLAHIWWDDDKYYVDSVKGRFTISRDNAKNSLYLQMNSLRAEDTAVYYCARTRQYFPFAYWGQGTLVTVSS
VL: EIVLTQSPATLSLSPGERATLSCRASQSVGTNLAWYQQKPGQAPRLLIYYASYRYTGIPARFSGSGSGTDFTLTISSLEPEDFAVYYCQQYSNDPLTFGGGTKVEIK
notes: Human IgG1
Consider B3, for which the binding result in the assay with hDR3-Fc, with h4-1BB-Fc, with hBAFFR-Fc, with hVCAM-1, in the assay with hOX40-Fc and with hEpCAM-Fc was “no binding (tested: 10 µg/ml)” each time. Further, the “concentration at maximum MFI” value in assay [1] was around 1110 ng/mL.

B4: VH3/VL2 IgG1 (antibody, V domains shown)
VH: EVQLVESGGGLVQPGGSLRLSCAASGFSLSTSGMGVGWVRQAPGKGLEWLAHIWWDDDKYYVDSVKGRFTISRDNAKNSLYLQMNSLRAEDTAVYYCARTRRYFPFAYWGQGTLVTVSS
VL: EIVLTQSPATLSLSPGERATLSCRASQNVGTNVAWYQQKPGQAPRLLIYSASYRYSGIPARFSGSGSGTDFTLTISSLEPEDFAVYYCQQYNTDPLTFGGGTKVEIK
notes: Human IgG1; template of the mutagenesis library; also called G-VH3/VL2; VH3 family
B4: the binding result with hDR3-Fc, with h4-1BB-Fc, with hBAFFR-Fc, with hVCAM-1, with hOX40-Fc and with hEpCAM-Fc was “no binding (tested: 10 µg/ml)” each time. Besides, in assay [1], the “concentration at maximum MFI” value is around 1110 ng/mL.

B5: I-C2 IgG1 (antibody, V domains shown)
VH: EVQLVESGGGLVQPGGSLRLSCAASGFSLSTSGYGVGWVRQAPGKGLEWLAHIWWDDDKYYVDSVKGRFTISRDNAKNSLYLQMNSLRAEDTAVYYCARTRLYFPFAYWGQGTLVTVSS
VL: EIVLTQSPATLSLSPGERATLSCRASQNVGSNLAWYQQKPGQAPRLLIYSASNRYSGIPARFSGSGSGTDFTLTISSLEPEDFAVYYCQQYSTDPLTFGGGTKVEIK
notes: Human IgG1
Take B5: the binding result in the assay with hDR3-Fc, in the assay with h4-1BB-Fc, with hBAFFR-Fc, with hVCAM-1, with hOX40-Fc and with hEpCAM-Fc was “no binding (tested: 10 µg/ml)” in each case. Moreover, the “concentration at maximum MFI” value in assay [1] is around 1110 ng/mL.
